The target of the test is peptide from Dynamin1 proline-rich domain. Kind of test: not stated; monomeric GRAF1 SH3 domain with a peptide from the Dynamin1 proline-rich domain; method in Figure S2D or the supplement, not shown.

One may read the Kd as the free concentration of one partner at which half of the binding sites on the other are occupied at equilibrium, for simple one-to-one binding. Higher therefore signals lower affinity.

B1: Monomeric GRAF1 SH3 domain (domain or fragment)
chain: TPFRKAKALYACKAEHDSELSFTAGTVFDNVHPSQEPGWLEGTLNGKTGLIPENYVEFL
Consider B1, for which the Kd came out at 106 µM.
